Data published in patent US20240174744A1 (SCIRHOM, published 2024).

Tests used:
[1] = target: T1, hiR1-FL-WT-T7 (human iRhom1 full length wild type C-terminally tagged with 3 consecutive copies of the T7 … (human, UniProt Q96CC6 1-855)); test: FACS, MEF-DKO-hiR1-FL-WT-T7 cells
T1 construct: also called human iRhom1 variant expressed by MEF-DKO-hiR1-FL-WT-T7 cells
T1 sequence: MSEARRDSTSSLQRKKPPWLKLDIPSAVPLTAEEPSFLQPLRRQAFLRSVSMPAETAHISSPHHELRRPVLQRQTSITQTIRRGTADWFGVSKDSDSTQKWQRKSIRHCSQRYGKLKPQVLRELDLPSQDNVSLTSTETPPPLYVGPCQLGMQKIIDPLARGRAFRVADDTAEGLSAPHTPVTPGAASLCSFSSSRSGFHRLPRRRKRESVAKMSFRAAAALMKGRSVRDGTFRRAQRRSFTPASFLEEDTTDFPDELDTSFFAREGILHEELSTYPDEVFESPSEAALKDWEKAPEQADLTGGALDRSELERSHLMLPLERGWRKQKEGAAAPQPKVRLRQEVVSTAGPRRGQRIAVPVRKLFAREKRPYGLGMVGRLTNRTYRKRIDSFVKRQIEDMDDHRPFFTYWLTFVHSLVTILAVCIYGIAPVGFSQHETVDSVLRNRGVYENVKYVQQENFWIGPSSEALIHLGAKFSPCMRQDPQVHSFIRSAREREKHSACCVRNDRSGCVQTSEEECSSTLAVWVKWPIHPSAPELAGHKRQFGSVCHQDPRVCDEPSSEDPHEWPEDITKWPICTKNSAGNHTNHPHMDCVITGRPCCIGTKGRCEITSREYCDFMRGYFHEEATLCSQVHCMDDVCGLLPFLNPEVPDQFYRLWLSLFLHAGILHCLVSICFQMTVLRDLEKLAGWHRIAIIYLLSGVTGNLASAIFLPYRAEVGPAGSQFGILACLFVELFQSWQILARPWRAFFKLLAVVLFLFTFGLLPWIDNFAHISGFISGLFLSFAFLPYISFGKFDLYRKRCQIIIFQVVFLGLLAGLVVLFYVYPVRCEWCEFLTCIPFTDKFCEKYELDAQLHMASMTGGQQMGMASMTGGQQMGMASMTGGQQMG

[2] = target: T2, human iRhom1, endogenously expressed on RH-30 cells (human, UniProt Q96CC6 1-855); test: FACS on RH-30 cells (iRhom1-positive, not iRhom2-positive)
T2 construct: RH-30 cells are described as endogenously negative for iRhom2 but endogenously expressing iRhom1; also called NP_071895.3
T2 sequence: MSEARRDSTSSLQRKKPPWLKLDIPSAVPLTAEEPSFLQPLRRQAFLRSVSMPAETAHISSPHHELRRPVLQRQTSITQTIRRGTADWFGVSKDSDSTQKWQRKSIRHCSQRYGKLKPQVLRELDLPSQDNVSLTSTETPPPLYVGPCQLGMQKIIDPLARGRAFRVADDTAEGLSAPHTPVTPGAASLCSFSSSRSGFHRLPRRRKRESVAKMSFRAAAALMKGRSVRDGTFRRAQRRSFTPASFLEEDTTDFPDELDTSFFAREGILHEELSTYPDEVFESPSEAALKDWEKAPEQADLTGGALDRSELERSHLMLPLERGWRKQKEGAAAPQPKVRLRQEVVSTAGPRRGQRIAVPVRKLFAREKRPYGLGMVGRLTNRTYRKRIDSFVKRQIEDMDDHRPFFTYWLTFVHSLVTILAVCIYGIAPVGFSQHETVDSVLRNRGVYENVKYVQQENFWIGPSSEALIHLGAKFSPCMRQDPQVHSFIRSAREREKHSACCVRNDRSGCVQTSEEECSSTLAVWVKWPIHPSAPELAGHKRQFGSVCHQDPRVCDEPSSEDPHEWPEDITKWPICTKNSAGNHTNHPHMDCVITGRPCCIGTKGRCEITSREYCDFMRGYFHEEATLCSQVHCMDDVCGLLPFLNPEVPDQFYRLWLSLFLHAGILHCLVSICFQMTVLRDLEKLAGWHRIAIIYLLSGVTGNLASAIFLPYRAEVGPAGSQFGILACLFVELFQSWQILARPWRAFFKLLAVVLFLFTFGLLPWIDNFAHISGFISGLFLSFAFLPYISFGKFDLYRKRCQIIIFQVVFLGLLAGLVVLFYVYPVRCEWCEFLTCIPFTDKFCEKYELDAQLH

[3] = target: T1, hiR1-FL-WT-T7 (human iRhom1 full length …); test: FACS on MEF-DKO-hiR1-FL-WT-T7 cells
[4] = target: T3, miR2-FL-WT-FLAG (mouse iRhom2 full length wild type C-terminally tagged with the triple-FLAG epitope) (mouse, UniProt Q80WQ6 1-827); test: FACS on MEF-DKO-miR2-FL-WT-FLAG cells
T3 construct: also called expressed by MEF-DKO-miR2-FL-WT-FLAG cells
T3 sequence: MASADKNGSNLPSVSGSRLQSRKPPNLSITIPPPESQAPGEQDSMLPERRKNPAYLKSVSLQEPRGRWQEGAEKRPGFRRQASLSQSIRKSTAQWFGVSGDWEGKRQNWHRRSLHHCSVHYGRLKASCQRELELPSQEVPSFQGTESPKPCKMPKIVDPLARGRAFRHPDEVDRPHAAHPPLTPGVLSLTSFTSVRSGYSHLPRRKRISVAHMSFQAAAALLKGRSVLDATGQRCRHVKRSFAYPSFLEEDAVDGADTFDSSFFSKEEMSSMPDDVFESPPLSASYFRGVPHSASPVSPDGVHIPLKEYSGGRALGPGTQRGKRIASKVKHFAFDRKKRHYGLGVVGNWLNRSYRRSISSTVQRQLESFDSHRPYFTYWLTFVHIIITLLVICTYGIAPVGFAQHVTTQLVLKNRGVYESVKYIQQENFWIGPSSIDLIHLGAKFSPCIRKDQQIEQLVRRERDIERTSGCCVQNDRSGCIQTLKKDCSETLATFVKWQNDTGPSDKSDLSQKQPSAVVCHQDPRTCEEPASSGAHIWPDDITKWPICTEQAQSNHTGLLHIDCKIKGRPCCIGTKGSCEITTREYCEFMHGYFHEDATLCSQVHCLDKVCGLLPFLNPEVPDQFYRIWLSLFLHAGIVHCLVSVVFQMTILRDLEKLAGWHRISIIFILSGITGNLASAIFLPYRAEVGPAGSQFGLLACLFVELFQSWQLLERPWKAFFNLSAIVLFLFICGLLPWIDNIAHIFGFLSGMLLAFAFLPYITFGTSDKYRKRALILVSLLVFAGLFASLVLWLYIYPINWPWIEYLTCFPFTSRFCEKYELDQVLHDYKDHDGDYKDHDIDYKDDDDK

B1: antibody 48 (antibody, V domains shown)
VH: QVQLQQSGTELVRPGTSVKVSCKASGYAFTNYLIEWVKQRPGQGLEWIGVINPGSGFTKYNEKFKGKATLTADKSSSTVYMHLSSLTSEDSAVYFCARGLYRAMDYWGQGTSVTVSS
VL: DIQMTQSPASQSASLGESVTITCLASQTIATWLAWYQQKPGKSPQLLIYGATTLADGVPSRFSGGGSGTKFSFKISSLQAEDFVSYYCQQLYSTPYTFGGGTKLEIK
notes: Mouse IgG, kappa light chain; also called clone #48; purified antibody 48
- binding result [1]: no binding (tested: 3 µg/ml)

B2: antibody 16 (antibody, V domains shown)
VH: QVTLKESGPGILQPSQTLSLTCSFSGFSLSTFALGVGWIRQPSGRGLEWLAHIWWDDDKYYNPALKSRLTISKDTSKNHVFLKIANVDTADTATYYCARITTYYYGMDYWGQGTSVTVSS
VL: DIVLSQSPATLSVTPGDSVSLFCRASQSIGNHLHWYQQESHASPRLLIKYASQSISGIPSRFSGSGSGTDFTLSINSVETEDFGMYFCQQSYNWPLTFGAGTKLELK
notes: Mouse IgG, kappa light chain; also called clone #16; m16
- binding result [2]: no binding (tested: 3 µg/ml)

B3: antibody 3 (antibody, V domains shown)
VH: QVTLKESGPGILQPSQTLSLTCSFSGFSLTTFAMGIGWVRQPSGKGLEWLAHIWWDGEKYNNPVLKSRLTISKDTSKNQVFLRIANVDTPDTATYYCARISSIYYIIDNWGQGTSVTVSS
VL: DIVLTQSPATLSVTPGHSVSLSCRASQSISNNLHWYQKKSHESPRLLIKYVSQSISGIPSRFSGSGSGTDFTLSINSVETEDFGMYFCQQSYNWPLTFGAGTKLELK
notes: Mouse IgG, kappa light chain; also called clone #3; purified antibody 3
- binding result [3]: no binding (tested: 3 µg/ml)
- binding result [4]: no binding (tested: 3 µg/ml)
